Test results from patent US8445431.
No end group written: not given here.

B1: [KGHK-Cu]+ copper(II) complex of KGHK (peptide)
peptide: KGHK
modifications: also: Cu(II) complex bound by ATCUN motif (free N-term, two peptide N, His3)
B2: GlyGlyHis (GGH) peptide, metal-free (peptide)
peptide: GGH
B3: TyrIleHisProPhe (YIHPF, Angiotensin II 4-8) peptide, metal-free (peptide)
peptide: YIHPF
B4: [YIHPF-Cu]- copper(II) complex of YIHPF (peptide)
peptide: YIHPF
modifications: also: Cu(II) complex bound by ATCUN motif
B5: LysGlyHisLys (KGHK) peptide, metal-free (peptide)
peptide: KGHK
B6: [GGH-Cu]- copper(II) complex of GGH (peptide)
peptide: Gly-Gly-His
modifications: also: Cu(II) complex bound by ATCUN motif

Columns and labels:
[1] = target: recombinant isoform of human Angiotensin Converting Enzyme (rhACE) corresponding to the ectodomain somatic ACE (human) (UniProt P12821); experiment: Enzyme inhibition of rhACE with fluorogenic substrate, Dixon plot and KI=IC50/(1+[S]/Km); 45 min pre-incubation, hydrolytic conditions
[2] = target: recombinant isoform of human Angiotensin Converting Enzyme (rhACE) corresponding to the ectodomain somatic ACE (human) (UniProt P12821); experiment: cell-based or functional assay
[3] = target: recombinant isoform of human Angiotensin Converting Enzyme (rhACE) corresponding to the ectodomain somatic ACE (human), P12821; experiment: cell-based or functional assay
Chain of recombinant isoform of human Angiotensin Converting Enzyme (rhACE) corresponding to the ectodomain somatic ACE (human), P12821 (P12821 30-1256): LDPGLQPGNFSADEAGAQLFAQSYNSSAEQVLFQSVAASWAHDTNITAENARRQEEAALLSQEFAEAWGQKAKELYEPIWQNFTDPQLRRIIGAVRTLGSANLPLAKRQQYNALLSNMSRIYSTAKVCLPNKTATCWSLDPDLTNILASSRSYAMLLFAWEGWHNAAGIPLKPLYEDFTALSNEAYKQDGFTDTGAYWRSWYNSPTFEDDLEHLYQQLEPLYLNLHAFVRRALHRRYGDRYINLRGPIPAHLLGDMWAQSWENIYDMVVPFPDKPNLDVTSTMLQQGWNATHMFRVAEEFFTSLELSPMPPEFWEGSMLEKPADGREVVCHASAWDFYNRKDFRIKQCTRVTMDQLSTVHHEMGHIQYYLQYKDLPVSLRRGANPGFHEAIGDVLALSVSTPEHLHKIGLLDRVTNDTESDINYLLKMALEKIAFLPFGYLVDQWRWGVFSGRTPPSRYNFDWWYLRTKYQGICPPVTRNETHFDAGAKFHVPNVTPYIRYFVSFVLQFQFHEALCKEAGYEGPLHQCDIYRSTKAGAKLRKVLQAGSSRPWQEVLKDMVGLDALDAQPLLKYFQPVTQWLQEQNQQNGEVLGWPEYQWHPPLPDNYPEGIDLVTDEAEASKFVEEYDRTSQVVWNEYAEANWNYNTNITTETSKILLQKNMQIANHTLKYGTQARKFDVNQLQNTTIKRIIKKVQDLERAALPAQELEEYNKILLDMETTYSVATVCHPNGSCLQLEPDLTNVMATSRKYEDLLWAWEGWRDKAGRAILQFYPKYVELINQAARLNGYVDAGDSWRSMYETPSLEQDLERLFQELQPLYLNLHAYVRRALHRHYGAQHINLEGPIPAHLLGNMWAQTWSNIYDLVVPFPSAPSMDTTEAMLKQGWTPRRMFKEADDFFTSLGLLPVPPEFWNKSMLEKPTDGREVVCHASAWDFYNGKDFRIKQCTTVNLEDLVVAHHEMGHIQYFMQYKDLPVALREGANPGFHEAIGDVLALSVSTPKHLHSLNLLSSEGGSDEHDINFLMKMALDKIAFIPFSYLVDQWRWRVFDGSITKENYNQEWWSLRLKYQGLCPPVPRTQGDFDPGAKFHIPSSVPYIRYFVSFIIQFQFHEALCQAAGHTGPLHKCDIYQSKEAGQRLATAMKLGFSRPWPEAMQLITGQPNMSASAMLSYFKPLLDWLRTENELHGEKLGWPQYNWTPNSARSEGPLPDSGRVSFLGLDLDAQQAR

Chain of recombinant isoform of human Angiotensin Converting Enzyme (rhACE) corresponding to the ectodomain somatic ACE (human) (P12821 30-1256): as above

| Binder | Ki [1] [µM] | IC50 of rhACE inhibition (fluorogenic substrate cleavage) [2] [µM] | IC50 of rhACE inhibition (fluorogenic substrate cleavage) [3] [µM] |
| --- | --- | --- | --- |
| B1 | 4 | 11 | – |
| B2 | – | – | > 100 |
| B3 | – | – | > 100 |
| B4 | – | – | > 100 |
| B5 | – | – | > 100 |
| B6 | – | – | > 100 |
